Reference: patent publication US20030061635A1, “Pollen-specific novel calmodulin-binding protein, NPG1 (No Pollen Germination1), promoter, coding sequences and methods for using the same” (priority 2001, published 2003)

Experiments:
[1] = tested on: CaM-Sepharose beads; experiment: Bacterially expressed AtNPG1 binding to CaM-Sepharose beads; settings: eluted with EGTA-containing buffer
Experimental: A 2.0 kb EcoRI fragment of AtNPG1 cDNA containing the entire coding region was subcloned into pET28a and the orientation of the cDNA was confirmed by restriction analysis and sequencing. Induction of fusion protein, its purification on CaM Sepharose column and detection with horseradish peroxidase CaM isoforms was performed essentially as described earlier (Reddy and Reddy (2000) J. Biol. Chem. 275:35457-35470).

[2] = tested on: Arabidopsis CaM isoform-2, -4 and -6; experiment: Blot overlay of purified AtNPG1 with horseradish peroxidase labeled Arabidopsis CaM isoforms; assay type: binding, Arabidopsis thaliana; settings: absence or presence of calcium
Experimental: HRP was conjugated to CaM and used in blot overlay assays according to the procedure described by Lee et al. (1999) BBA 1433:56-67. Briefly, the Arabidopsis CaM2 was incubated in 25 mM Tris-HCl, pH 7, 2 mM EGTA, and 0.1 M DTT at 55° C. for 1.5 h and the reduced CaM was extensively dialyzed against phosphate-buffered saline at 4° C. Maleimide-activated HRP (Pierce Biotechnology, Inc., Rockford, Ill.) and reduced CaM were incubated at a molar ratio of 1:1 in phosphate-buffered saline at room temperature for 1.5 h. The resulting HRP-CaM complex was verified on a denaturing gel and used in blot-overlay assays. Protein blots were prepared as described above, rinsed in TBST (TBS containing 0.1% (v/v) Tween 20), and blocked by incubating in TBST plus 7% (w/v) non-fat dry milk overnight. The blocked membranes were washed three times, 5 min each, with TBST. After equilibration in the overlay buffer (50 mM imidazole-HCl, pH 7.5, and 150 mM NaCl) for 1 h, the membranes were incubated for 1 h in overlay buffer containing 0.1% gelatin and […] HRP-CaM. The HRP-CaM overlay blots were washed sequentially in three buffers. Wash with each buffer was performed five times for 5 min each. […] The proteins that bound to HRP-CaM were detected by immersing the blots in a substrate solution as above. […]

[3] = biological target: T1, HRP-CaM (Arabidopsis CaM2) (Arabidopsis thaliana, UniProt P0DH97); experiment: HRP-CaM blot overlay assay; assay type: binding
T1 construct: made in house; host or cells: E. coli BL21(DE3)
Experimental: HRP was conjugated to CaM and used in blot overlay assays according to the procedure described by Lee et al. (1999) BBA 1433:56-67. Briefly, the Arabidopsis CaM2 was incubated in 25 mM Tris-HCl, pH 7, 2 mM EGTA, and 0.1 M DTT at 55° C. for 1.5 h and the reduced CaM was extensively dialyzed against phosphate-buffered saline at 4° C. Maleimide-activated HRP (Pierce Biotechnology, Inc., Rockford, Ill.) and reduced CaM were incubated at a molar ratio of 1:1 in phosphate-buffered saline at room temperature for 1.5 h. The resulting HRP-CaM complex was verified on a denaturing gel and used in blot-overlay assays. Protein blots were prepared as described above, rinsed in TBST (TBS containing 0.1% (v/v) Tween 20), and blocked by incubating in TBST plus 7% (w/v) non-fat dry milk overnight. The blocked membranes were washed three times, 5 min each, with TBST. […] The proteins that bound to HRP-CaM were detected by immersing the blots in a substrate solution as above.
Maize pollen proteins were extracted in a buffer containing 50 mM Tris-HCl, pH 7.4, 250 mM sucrose, 5 mM DTT, and complete protease inhibitor mixture. […] The absorbance of the eluted fractions was recorded at 235 and 280 nm to compare the elution profile of protein with EGTA. […]

[4] = tested on: 35S-labeled AtCaM; experiment: Blot overlay of bacterially expressed maize NPG1 fusion proteins with 35S-CaM; assay type: binding, Arabidopsis thaliana; settings: in the presence of EGTA
Experimental: The 1.2-kb cDNA insert (named P3) containing the coding region for 242 amino acids in the carboxyl-terminal region was cloned in-frame into a pET28b expression vector. For mapping the CaM-binding domain, several truncated constructs were prepared in a pET vector. The P3 cDNA in pET28 was digested with either NcoI or BamHI to release a 168- or 717-bp fragment corresponding to the 5′ end of the cDNA. The NcoI and BamHI fragments were cloned into pET28b vector digested with the respective enzymes to generate P3/NcoI and P3/BamHI clones. The P3 clones lacking either NcoI or BamHI fragments were religated to generate PΔNcoI and PΔBamHI expression clones. […]
Soluble and insoluble proteins from the induced and un-induced cultures were separated on 12% SDS-polyacrylamide gels and blotted as described above. […] Binding to biotinylated CaM was detected by blocking the blots in 3% gelatin in TBS/Ca/Mg or TBS/EGTA/Mg (50 mM Tris-HCl, pH 7.5, 50 mM MgCl2, 150 mM NaCl, and 5 mM of either CaCl2 or EGTA) at 30° C. […] The blots were then incubated in Vectastain ABC.HRP in TBS/Ca/Mg or TBS/EGTA/Mg for 30 min, washed 3 times, 10 min each, with the above buffer and the CaM-binding proteins were detected colorimetrically in a substrate solution (0.8 mg/ml diaminobenzidine, 0.4 mg/ml NiCl2, and 0.009% H2O2 in 100 mM Tris-HCl, pH 7.5).

[5] = biological target: T2, CaM-Sepharose (Bos taurus, UniProt P62157); experiment: Native NPG1 from maize pollen on CaM-Sepharose column / pull-down with CaM-Sepharose beads; assay type: binding, bovine; settings: bound with Ca2+, eluted with EGTA; maize pollen extract
T2 construct: purchased Amersham Pharmacia Biotech UK Ltd., Little Chalfont, Buckinghamshire, UK
Experimental: Maize pollen proteins were extracted in a buffer containing 50 mM Tris-HCl, pH 7.4, 250 mM sucrose, 5 mM DTT, and complete protease inhibitor mixture. The extract was first centrifuged at 14,000×g for 20 min and then at 100,000×g for 15 min at 4° C. to obtain the supernatant containing soluble proteins. Prior to loading the supernatant onto the CaM-Sepharose column (Amersham Pharmacia Biotech UK Ltd., Little Chalfont, Buckinghamshire, UK) the concentration of Ca^2+ was adjusted to 1.25 mM. The flow-through was collected and saved. The column was washed thoroughly with binding buffer (50 mM Tris-HCl, pH 7.5, 150 mM NaCl, 1.25 mM CaCl2) to remove unbound proteins. Washes equivalent to 1-bed volume of the column were collected and saved. The CaM-binding proteins were eluted with elution buffer (50 mM Tris-HCl, pH 7.5, 150 mM NaCl, 5 mM EGTA). The absorbance of the eluted fractions was recorded at 235 and 280 nm to compare the elution profile of protein with EGTA. Initial soluble extract, flow-through, wash fraction, and eluted protein were separated on three denaturing gels. One gel was stained with Coomassie Blue and the other two were blotted onto nitrocellulose membranes and probed with NPG1-specific antibody or HRP-CaM.
[…] of pollen soluble proteins prepared as described above were mixed and incubated with 0.2 ml of CaM-Sepharose beads at room temperature for 30 min. […]

[6] = biological target: T3, biotinylated CaM (Bos taurus, UniProt P62157); experiment: Blot overlay of fusion proteins with biotinylated CaM; assay type: binding; settings: in the presence of Ca2+
T3 construct: purchased Calbiochem-Novabiochem (San Diego, Calif.)
Experimental: Soluble and insoluble proteins from the induced and un-induced cultures were separated on 12% SDS-polyacrylamide gels and blotted as described above. To detect the binding of the expressed proteins to ^35S-labeled AtCaM, duplicate blots were blocked for 15 min in TBS (50 mM Tris-HCl, pH 7.5, 150 mM NaCl) containing 5 mM of either CaCl2 or EGTA and 1% nonfat dry milk. The blots were then incubated for 12 h in a mixture of ^35S-labeled AtCaM isoforms at […] in the same buffers as above. The filters were then washed with the corresponding buffer and dried before exposing to X-ray film. Binding to biotinylated CaM was detected by blocking the blots in 3% gelatin in TBS/Ca/Mg or TBS/EGTA/Mg (50 mM Tris-HCl, pH 7.5, 50 mM MgCl2, 150 mM NaCl, and 5 mM of either CaCl2 or EGTA) at 30° C. The blots were then incubated in […] biotinylated CaM for 2 h in TBS/Ca/Mg or TBS/EGTA/Mg containing 0.1% Tween 20 and 1% gelatin followed by three washes of 10 min each in the corresponding buffers above. The blots were then incubated in Vectastain ABC.HRP in TBS/Ca/Mg or TBS/EGTA/Mg for 30 min, washed 3 times, 10 min each, with the above buffer and the CaM-binding proteins were detected colorimetrically in a substrate solution (0.8 mg/ml diaminobenzidine, 0.4 mg/ml NiCl2, and 0.009% H2O2 in 100 mM Tris-HCl, pH 7.5).

B1: AtNPG1: Arabidopsis NPG1, protein of 704 amino acids, SEQ ID NO:10, bacterially expressed as T7 tag fusion (protein, listed as Arabidopsis thaliana)
chain: MLGNQSADFSEKGEDEIVRQLCANGICMKTTEVEAKLDEGNIQEAESSLREGLSLNFEEARALLGRLEYQRGNLEGALRVFEGIDLQAAIQRLQVSVPLEKPATKKNRPREPQQSVSQHAANLVLEAIYLKAKSLQKLGRITEAAHECKSVLDSVEKIFQQGIPDAQVDNKLQETVSHAVELLPALWKESGDYQEAISAYRRALLSQWNLDNDCCARIQKDFAVFLLHSGVEASPPSLGSQIEGSYIPRNNIEEAILLLMILLKKFNLGKAKWDPSVFEHLTFALSLCSQTAVLAKQLEEVMPGVFSRIERWNTLALSYSAAGQNSAAVNLLRKSLHKHEQPDDLVALLLAAKLCSEEPSLAAEGTGYAQRAINNAQGMDEHLKGVGLRMLGLCLGKQAKVPTSDFERSRLQSESLKALDGAIAFEHNNPDLIFELGVQYAEQRNLKAASRYAKEFIDATGGSVLKGWRFLALVLSAQQRFSEAEVVTDAALDETAKWDQGPLLRLKAKLKISQSNPTEAVETYRYLLALVQAQRKSFGPLRTLSQMEEDKVNEFEVWHGLAYLYSSLSHWNDVEVCLKKAGELKQYSASMLHTEGRMWEGRKEFKPALAAFLDGLLLDGSSVPCKVAVGALLSERGKDHQPTLPVARSLLSDALRIDPTNRKAWYYLGMVHKSDGRIADATDCFQAASMLEESDPIESFSTIL
modifications: T7 tag fusion
binding to CaM-Sepharose beads [1]: bound CaM-Sepharose beads in a calcium-dependent manner
binding to Arabidopsis CaM isoforms in blot overlay [2]: bound three Arabidopsis CaM isoforms in a calcium-dependent manner

B2: NPG1: maize pollen-specific calmodulin-binding protein, 659 amino acid residues, about 72 kDa, SEQ ID NO:1 (protein)
chain: MPLIRYYVDHVHVAVEARALLGRLEFQKGNVEVALRVFDGIDLQAAIQQFQPSLSDKTPSKKGRTKSEIPSSVPQNNPASLVLEAIYLKSLSLQKLGKSTEAANQCKSVLDSVESIFQNGAPDIEQKLQETVNKSVELLPEAWKHAGSNQEALASYRRALLSPWNLDDECRTRVQKRFASFLLYXTNIDWSPPSMAQQVEGCFVPKNSVEEAVLLLMVVLRSWYQGKTHWDPSVMEHLTYALSLCGEPLVLAKQLEEVLPGVYPRTERWATLALCYYVAGQKDVALNFLRKSLNKLENPNDVLALLLAAKICSKERHLASEGVEYARRVIACAESSDPHLKSVGLHFLGSCLGNKSKVVSSDYQRSLLQTETLKSFAESIGLNRYNADLIFDMGVEYAEQRNMNAALRCAKEFIEATGGSVSKGWRLLALILSAQQRFSEAEVATDAALDETAKLDQGSLLRVKAKLKVAQSSPMEAVEAYRALLALVQAQKNSPGGSCKSATEDADGSVSEFEIWQGLANLYSSLSYWRDAEICLNKARALKLYSAATLHAEGYMHEARDQTTDALAAYVNAFSTELEHVPSKVAIGAMLSKQGPRFLPAARCFLSDALRVEPTNRMAWLYLGKVHRSDGRISDAADCFQAAVMLEESDPVESFSSLS
modifications: X: residue not identified in the source
detection by HRP-CaM in blot overlay [3]: also detected by HRP-CaM
binding to CaM [4]: No binding to CaM was observed
binding of native protein to CaM-Sepharose [5]: binds CaM in the presence of Ca^2+
binding to biotinylated CaM [6]: did not bind to biotinylated CaM
